Source: patent US7662384B2, “Use of anti-α5β1 antibodies to inhibit cancer cell proliferation” (Facet Biotech Corporation, priority 2004, dated 2010)

What was measured:
refractory solid tumors = experiment: Phase I extension study: tumor response; format: in vivo, human
Protocol: A two-part Phase I open-label study was carried to determine the effects of treatment with up to 6 dose levels, from 0.5 mg/kg to 15.0 mg/kg of M200 (volociximab) in 21 human patients with a variety of refractory solid tumor types. The total duration of treatment for the first part was 6 weeks with physical assessments through 45 days after the last dose.
Patient evaluations during the study included the following: • a. Screening (within 14 days of study entry) of: medical history and physical examination, ECOG performance status, routine chemistry panel, complete blood count (CBC) with differential and platelets, sensitive C-reactive protein (CRP), urinalysis with microscopic analysis (UA/micro), electrocardiogram (ECG), chest radiograph (CXR), disease-directed body CT or MRI, urine pregnancy test within 48 hours prior to dosing, and coagulation studies (prothrombin [PT] and partial thromboplastin time [PTT]), anti-M200 antibodies (i.e., to detect cross-reactive HAMA or HACA) for patients who previously received murine or chimeric antibodies, head CT for patients with tumors that commonly metastasize to brain or CNS, and, in some patients, a biopsy to evaluate tumor vessel vascularity. • b. On-study laboratory evaluations: routine chemistry panel, urate, serum amylase, CBC with differential and platelets, UA/micro. • c. Routine disease-directed radiographic imaging (e.g., CT scanning) before and after treatment with M200 was used to evaluate tumor response using uni-dimensional, RECIST criteria. Target lesions were selected on the basis of their size (lesions with the longest diameter (LD)) and their suitability for accurate repetitive measurements (either by imaging techniques or clinically). A sum of the LD for all target lesions was calculated and reported as the baseline sum LD. The baseline sum LD was used as reference by which to characterize the objective tumor response. The following response criteria for the target lesions was used to assess the best overall response. • Complete Response (CR): Disappearance of all target lesions confirmed by repeat imaging 25 to 28 days after CR first documented. • Partial Response (PR): At least a 30% decrease in the sum of LD of target lesions, taking as reference the baseline sum LD, confirmed by repeat imaging 25 to 28 days after PR first documented. • Stable Disease (SD): Neither sufficient shrinkage to qualify for PR nor sufficient increase to qualify for PD, taking as references the smallest sum LD. • Progressive Disease (PD): At least a 20% increase in the sum of LD of target lesions, taking as reference the smallest sum LD recorded since treatment started, or the appearance of one or more new lesions. • d. Blood drawn for serum PK measurements, immunogenicity assays (anti-M200 antibodies), vascular growth factors, and measurement of bound and unbound α5β1 on peripheral blood monocytes. • e. A 3-mm punch biopsy of superficial tumor metastasis was obtained and frozen after the last treatment with M200 from patients who consented (not required for enrollment) to the procedure. This biopsy specimen could be used evaluate tumor vessel vascularity following treatment with M200.
One of these patients with renal cell cancer (RCC) in the 15.0 mg/kg cohort achieved a partial response.

α5β1 sites on monocytes = molecular target: T1, α5β1 sites on monocytes (Homo sapiens, UniProt P05556+P08648); experiment: Phase I study: saturation of α5β1 sites on monocytes by flow cytometry; format: in vivo; conditions: 10 mg/kg dosage
T1 construct: endogenous in cells; host or cells: CD14+ monocytes in peripheral blood of human patients
T1 sequence (P08648 42-894 limits assumed): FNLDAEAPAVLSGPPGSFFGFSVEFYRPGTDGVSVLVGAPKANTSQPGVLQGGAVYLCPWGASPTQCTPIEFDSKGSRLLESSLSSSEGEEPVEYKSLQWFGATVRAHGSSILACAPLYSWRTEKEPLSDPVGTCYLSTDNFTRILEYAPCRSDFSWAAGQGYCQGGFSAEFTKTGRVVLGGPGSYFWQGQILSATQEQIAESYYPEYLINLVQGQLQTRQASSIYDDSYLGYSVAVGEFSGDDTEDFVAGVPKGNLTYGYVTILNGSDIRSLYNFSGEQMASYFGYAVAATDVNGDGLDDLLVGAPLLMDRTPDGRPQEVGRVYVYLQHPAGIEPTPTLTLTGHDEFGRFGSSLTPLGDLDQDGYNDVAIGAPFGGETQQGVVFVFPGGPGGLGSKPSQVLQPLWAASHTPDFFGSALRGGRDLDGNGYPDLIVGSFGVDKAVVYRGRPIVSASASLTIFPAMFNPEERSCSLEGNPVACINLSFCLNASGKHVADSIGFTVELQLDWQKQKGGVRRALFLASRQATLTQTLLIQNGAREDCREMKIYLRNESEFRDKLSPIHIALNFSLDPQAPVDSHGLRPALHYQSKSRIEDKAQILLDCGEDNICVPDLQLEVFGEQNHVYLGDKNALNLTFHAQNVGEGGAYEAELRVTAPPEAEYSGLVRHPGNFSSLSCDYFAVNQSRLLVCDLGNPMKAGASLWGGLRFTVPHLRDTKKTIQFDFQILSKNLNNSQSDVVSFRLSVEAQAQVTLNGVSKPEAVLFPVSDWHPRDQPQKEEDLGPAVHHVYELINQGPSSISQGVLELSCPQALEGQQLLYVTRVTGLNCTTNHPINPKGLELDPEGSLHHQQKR
T1 sequence (P08648 895-1049 limits assumed): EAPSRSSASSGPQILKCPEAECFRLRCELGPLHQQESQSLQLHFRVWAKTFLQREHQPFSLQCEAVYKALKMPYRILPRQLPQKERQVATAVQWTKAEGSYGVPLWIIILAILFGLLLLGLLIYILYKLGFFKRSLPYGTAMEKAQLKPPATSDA
T1 sequence (P05556 21-798): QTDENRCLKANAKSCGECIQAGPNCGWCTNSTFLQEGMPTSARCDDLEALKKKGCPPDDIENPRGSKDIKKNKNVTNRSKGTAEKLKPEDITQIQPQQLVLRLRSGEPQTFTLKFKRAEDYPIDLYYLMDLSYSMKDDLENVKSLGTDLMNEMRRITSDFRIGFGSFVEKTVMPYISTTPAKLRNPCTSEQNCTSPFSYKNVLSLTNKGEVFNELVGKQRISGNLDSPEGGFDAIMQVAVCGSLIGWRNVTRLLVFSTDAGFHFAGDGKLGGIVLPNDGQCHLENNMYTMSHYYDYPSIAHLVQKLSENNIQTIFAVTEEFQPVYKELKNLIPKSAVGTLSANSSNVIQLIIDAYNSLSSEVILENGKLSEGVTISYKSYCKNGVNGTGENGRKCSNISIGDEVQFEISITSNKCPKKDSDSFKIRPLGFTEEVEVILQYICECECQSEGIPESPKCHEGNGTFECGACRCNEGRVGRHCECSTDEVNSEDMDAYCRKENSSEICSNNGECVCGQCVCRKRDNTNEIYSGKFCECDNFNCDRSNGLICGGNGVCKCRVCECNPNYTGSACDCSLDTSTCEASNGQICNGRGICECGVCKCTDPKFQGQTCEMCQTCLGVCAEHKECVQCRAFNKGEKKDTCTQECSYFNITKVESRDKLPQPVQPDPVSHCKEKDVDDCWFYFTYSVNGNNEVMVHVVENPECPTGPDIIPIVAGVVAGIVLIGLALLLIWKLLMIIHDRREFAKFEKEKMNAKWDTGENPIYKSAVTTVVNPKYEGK
Protocol: The integrin α5β1 is also expressed on monocytes in the peripheral blood. To determine the dose at which the α5β1 sites on these circulating cells is saturated by M200, samples of peripheral blood were taken before the first dose on Study Day 1, Study Days 2 and 8, just before each subsequent dose, and on Study Day 43. The saturation of α5β1 sites on monocytes was determined by flow cytometry. The monocytes were identified by using antibodies to CD14. Bound M200 on the monocyte surface was detected by adding labeled anti-human IgG4. Unoccupied (free) α5β1 on the cells was detected by adding labeled IIA1. The percentages of monocytes and lymphocytes expressing α5β1 was also assessed.

B1: M200: chimeric IgG4 anti-α5β1 antibody derived from IIA1; generic name volociximab (antibody, V domains shown)
VH: MAVLGLLLCLVTFPSCVLSQVQLKESGPGLVAPSQSLSITCTISGFSLTDYGVHWVRQPPGKGLEWLVVIWSDGSSTYNSALKSRMTIRKDNSKSQVFLIMNSLQTDDSAMYYCARHGTYYGMTTTGDALDYWGQGTSVTVSS
VL: MDFQVQIFSFLLISASVIMSRGQIVLTQSPAIMSASLGERVTMTCTASSSVSSNYLHWYQQKPGSAPNLWIYSTSNLASGVPARFSGSGSGTSYSLTISSMEAEDAATYYCHQYLRSPPTFGGGTKLEIKDMSVDMSV
modifications: chimeric antibody
notes: chimeric IgG4 anti-α5β1 antibody derived from IIA1; generic name volociximab
Best Response Outcome (refractory solid tumors; 2.5 mg/kg, 1 patient, NSCLC): SD (SD defined as stabilization for ≧16 weeks (112 days)) | Time to Progression (refractory solid tumors; 2.5 mg/kg, 1 patient, NSCLC, includes 43 days on dose escalation study): 129 days | Best Response Outcome (refractory solid tumors; 5 mg/kg, 1 patient, HCC): SD (SD defined as stabilization for ≧16 weeks (112 days)) | Time to Progression (refractory solid tumors; 5 mg/kg, 1 patient, HCC, includes 43 days on dose escalation study): 122 days | Time to Progression (refractory solid tumors; 10 mg/kg, 1 patient, CRC, includes 43 days on dose escalation study): 70 days | Best Response Outcome (refractory solid tumors; 10 mg/kg, 1 patient, PARO): SD (SD defined as stabilization for ≧16 weeks (112 days)) | Time to Progression (refractory solid tumors; 10 mg/kg, 1 patient, PARO, includes 43 days on dose escalation study): 143 days | Best Response Outcome (refractory solid tumors; 15 mg/kg, 1 patient, MEL): SD (SD defined as stabilization for ≧16 weeks (112 days)) | Time to Progression (Days) (refractory solid tumors; 15 mg/kg, 1 patient, MEL, on study, includes 43 days on dose escalation study): 172+ (on Study) Days | Time to Progression (refractory solid tumors; 15 mg/kg, 1 patient, RCC, includes 43 days on dose escalation study): 214 days | patients exhibiting stable disease (SD) or better response (refractory solid tumors; of the 6 patients in the extension study): 5 patients | monocyte saturation (α5β1 sites on monocytes): monocyte saturation
